Like-named read-outs stand apart in the source and are kept apart here.
T1: His-tagged human FcγRIIB (R&D, carrier-free formulation) (human, UniProt P31994 46-217, limits assumed)
T1 construct: also called CD32B
T1 sequence (looked up): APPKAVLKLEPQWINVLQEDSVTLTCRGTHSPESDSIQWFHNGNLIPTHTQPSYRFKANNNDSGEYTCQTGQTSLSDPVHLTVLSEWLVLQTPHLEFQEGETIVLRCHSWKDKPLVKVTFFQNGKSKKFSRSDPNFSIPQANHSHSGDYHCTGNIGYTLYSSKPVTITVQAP

T2: His-tagged human FcγRIIA (R&D, carrier-free formulation) (human, UniProt P12318 36-218, limits assumed)
T2 construct: also called CD32A
T2 sequence (looked up): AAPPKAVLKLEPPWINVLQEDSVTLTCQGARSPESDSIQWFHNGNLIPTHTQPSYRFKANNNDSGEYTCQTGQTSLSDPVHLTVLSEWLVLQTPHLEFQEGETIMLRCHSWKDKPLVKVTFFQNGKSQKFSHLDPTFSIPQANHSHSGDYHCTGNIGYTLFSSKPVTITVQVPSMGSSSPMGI

B1: mAb1 IgG1 (antibody)
heavy: not shown
light: QVVLTQSPAIMSAFPGEKVTMTCSASSSVSYMNWYQQKSGTSPKRWIYDSSKLASGVPARFSGSGSGTSYSLTISSMETEDAATYYCQQWSRNPPTFGGGTKLQITRTVAAPSVFIFPPSDEQLKSGTASVVCLLNNFYPREAKVQWKVDNALQSGNSQESVTEQDSKDSTYSLSSTLTLSKADYEKHKVYACEVTHQGLSSPVTKSFNRGEC
notes: Human IgG1 antibody specific to human CD3, wild-type Fc; also called unmodified IgG; unmutated mAb1 IgG1
B2: mAb1 DANAPA IgG1 (antibody)
heavy: QVQLQQSGAELARPGASVKMSCKASGYTFTRSTMHWVKQRPGQGLEWIGYINPSSAYTNYNQKFKDKATLTADKSSSTAYMQLSSLTSEDSAVYYCASPQVHYDYNGFPYWGQGTLVTVSAASTKGPSVFPLAPSSKSTSGGTAALGCLVKDYFPEPVTVSWNSGALTSGVHTFPAVLQSSGLYSLSSVVTVPSSSLGTQTYICNVNHKPSNTKVDKKVEPKSCDKTHTCPPCPAPELLGGPSVFLFPPKPKDTLMISRTPEVTCVVVAVSHEDPEVKFNWYVDGVEVHNAKTKPREEQYASTYRVVSVLTVLHQDWLNGKEYKCKVSNKALAAPIEKTISKAKGQPREPQVYTLPPSREEMTKNQVSLTCLVKGFYPSDIAVEWESNGQPENNYKTTPPVLDSDGSFFLYSKLTVDKSRWQQGNVFSCSVMHEALHNHYTQKSLSLSPGK
light: B1 light
notes: mAb1 with Fc mutations D265A, N297A, P329A (EU numbering); also called DANAPA Fc mutated mAb1

Columns and labels:
[1] = target: T3, human recombinant FcγRI (Sino Biological) (human, UniProt P12314 16-288, limits assumed); assay: SPR (BIAcore), FcγRI on chip, steady-state model
T3 construct: Amine-coupled to a BIAcore CM5 chip (1500 RU); also called CD64

[2] = target: T1, His-tagged human FcγRIIB (R&D, …); assay: AlphaScreen competition assay; titrated antibody competes with biotinylated B21M IgG1 for His-tagged human FcγRIIB
[3] = target: T4, human recombinant FcγRIIIA (158F; R&D Systems) (human, UniProt P08637 17-208); assay: SPR (BIAcore), FcγRIIIA 158F on chip, 1:1 Langmuir model
T4 construct: Amine-coupled to a BIAcore CM5 chip (1400 RU); also called CD16A

[4] = target: T5, Human C1q (EMD Millipore) (human, UniProt P02745 23-245; P02746 28-253; P02747 29-245); assay: SPR (BIAcore T100), antibody on CM5 chip, C1q injected, steady-state model
[5] = target: T6, human CD3 on CD3+ Jurkat cells (human); assay: flow cytometry on CD3+ Jurkat cells, bound antibody detected with anti-human IgG-Alexa488
T6 construct: whole, on cells

[6] = target: T2, His-tagged human FcγRIIA (R&D, …); assay: AlphaScreen competition assay; titrated antibody competes with biotinylated B21M IgG1 for His-tagged human FcγRIIA
[7] = target: T7, His-tagged human FcγRI (R&D, carrier-free formulation) (human, UniProt P12314 16-288); assay: AlphaScreen competition on His-tagged FcγRI; competitor biotinylated B21M LALA IgG1
T7 construct: also called CD64; human FcγR1

[8] = target: T4, human recombinant FcγRIIIA (158F; R&D …); assay: SPR (BIAcore), FcγRIIIA 158F on chip, kinetic (koff/kon)
[9] = target: T8, His-tagged human FcγRIIIA (R&D, carrier-free formulation) (human, UniProt P08637 17-208); assay: AlphaScreen competition assay; titrated antibody competes with biotinylated B21M IgG1 for His-tagged human FcγRIIIA
T8 construct: also called CD16A

[10] = target: T3, human recombinant FcγRI (Sino …); assay: SPR (BIAcore), FcγRI on chip, 1:1 Langmuir model
[11] = target: T3, human recombinant FcγRI (Sino …); assay: SPR (BIAcore), FcγRI on chip, kinetic (koff/kon)
[12] = target: T8, His-tagged human FcγRIIIA (R&D, …); assay: AlphaScreen competition assay; titrated antibody competes with biotinylated B21M IgG1 for His-tagged human FcγRIIIA; remark: listed apart in the source
[13] = target: T2, His-tagged human FcγRIIA (R&D, …); assay: AlphaScreen competition assay; titrated antibody competes with biotinylated B21M IgG1 for His-tagged human FcγRIIA; remark: listed apart in the source
[14] = target: T9, human recombinant FcRn (Sino Biological) (human, UniProt P55899 24-297; P61769 21-119); assay: SPR (BIAcore), FcRn on chip, pH 6.0, steady-state model
T9 construct: Amine-coupled to a CM5 chip (600 RU); also called neonatal Fc receptor

[15] = target: T4, human recombinant FcγRIIIA (158F; R&D …); assay: SPR (BIAcore), FcγRIIIA 158F on chip, steady-state model
[16] = target: T5, Human C1q (EMD Millipore); assay: SPR (BIAcore T100), antibody amine-coupled on a CM5 chip, human C1q injected
[17] = target: T4, human recombinant FcγRIIIA (158F; R&D …); assay: SPR (BIAcore), human FcγRIIIA (158F) amine-coupled on a CM5 chip, antibody injected

T4 sequence (P08637 17-208 limits assumed): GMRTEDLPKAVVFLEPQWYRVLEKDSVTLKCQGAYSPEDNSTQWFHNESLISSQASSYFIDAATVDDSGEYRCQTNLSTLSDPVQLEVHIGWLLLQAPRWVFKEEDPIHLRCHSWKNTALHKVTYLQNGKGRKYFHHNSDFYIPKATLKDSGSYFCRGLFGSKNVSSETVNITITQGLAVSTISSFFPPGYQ
T7 sequence (P12314 16-288 limits assumed): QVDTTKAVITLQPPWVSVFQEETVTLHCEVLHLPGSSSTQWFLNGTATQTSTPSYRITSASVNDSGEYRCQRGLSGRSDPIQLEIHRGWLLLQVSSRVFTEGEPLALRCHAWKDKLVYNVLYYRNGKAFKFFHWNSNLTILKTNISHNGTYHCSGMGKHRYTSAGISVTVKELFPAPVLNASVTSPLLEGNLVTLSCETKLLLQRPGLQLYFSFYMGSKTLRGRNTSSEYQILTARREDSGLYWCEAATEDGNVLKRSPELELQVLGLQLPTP
T3 sequence (P12314 16-288 limits assumed): as above
T6 sequence (P07766 23-207, chain 1 of 4): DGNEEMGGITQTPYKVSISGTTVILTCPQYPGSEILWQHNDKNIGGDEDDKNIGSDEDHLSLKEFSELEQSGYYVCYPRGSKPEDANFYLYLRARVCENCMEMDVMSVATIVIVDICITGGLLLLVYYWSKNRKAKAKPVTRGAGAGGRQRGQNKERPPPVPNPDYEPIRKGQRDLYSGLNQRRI
T6 sequence (P09693 23-182, chain 2 of 4, further chain): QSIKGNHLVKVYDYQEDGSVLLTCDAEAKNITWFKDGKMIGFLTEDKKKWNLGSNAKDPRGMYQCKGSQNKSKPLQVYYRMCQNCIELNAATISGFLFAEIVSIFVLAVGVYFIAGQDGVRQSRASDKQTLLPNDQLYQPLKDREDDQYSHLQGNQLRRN
T6 sequence (P04234 22-171, chain 3 of 4, further chain): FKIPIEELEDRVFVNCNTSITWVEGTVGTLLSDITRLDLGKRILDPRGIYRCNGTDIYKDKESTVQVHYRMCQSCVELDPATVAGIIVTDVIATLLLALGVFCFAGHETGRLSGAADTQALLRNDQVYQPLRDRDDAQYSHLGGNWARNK
T6 sequence (P20963 22-164, chain 4 of 4, further chain): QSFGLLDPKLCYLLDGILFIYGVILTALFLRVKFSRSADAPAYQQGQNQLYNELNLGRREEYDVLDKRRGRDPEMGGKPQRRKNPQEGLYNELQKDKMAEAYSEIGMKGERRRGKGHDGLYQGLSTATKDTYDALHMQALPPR
T9 sequence (P55899 24-297 limits assumed, chain 1 of 2): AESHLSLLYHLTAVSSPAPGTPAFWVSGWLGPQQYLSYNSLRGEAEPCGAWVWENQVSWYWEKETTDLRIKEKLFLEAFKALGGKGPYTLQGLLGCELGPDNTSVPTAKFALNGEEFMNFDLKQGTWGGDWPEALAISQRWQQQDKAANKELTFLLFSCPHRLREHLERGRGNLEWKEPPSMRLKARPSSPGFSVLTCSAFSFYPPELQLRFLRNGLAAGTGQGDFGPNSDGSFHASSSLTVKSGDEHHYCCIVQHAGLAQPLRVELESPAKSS
T9 sequence (P61769 21-119 limits assumed, chain 2 of 2): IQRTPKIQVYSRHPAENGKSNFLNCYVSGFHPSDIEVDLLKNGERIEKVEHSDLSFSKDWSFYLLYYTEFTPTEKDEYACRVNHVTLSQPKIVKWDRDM
T5 sequence (P02745 23-245 limits assumed, chain 1 of 3): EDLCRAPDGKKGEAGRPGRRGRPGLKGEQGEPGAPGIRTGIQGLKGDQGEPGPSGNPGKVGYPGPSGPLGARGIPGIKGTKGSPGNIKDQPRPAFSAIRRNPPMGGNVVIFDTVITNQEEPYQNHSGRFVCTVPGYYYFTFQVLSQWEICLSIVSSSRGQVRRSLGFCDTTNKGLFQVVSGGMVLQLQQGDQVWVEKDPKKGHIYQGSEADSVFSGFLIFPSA
T5 sequence (P02746 28-253 limits assumed, chain 2 of 3): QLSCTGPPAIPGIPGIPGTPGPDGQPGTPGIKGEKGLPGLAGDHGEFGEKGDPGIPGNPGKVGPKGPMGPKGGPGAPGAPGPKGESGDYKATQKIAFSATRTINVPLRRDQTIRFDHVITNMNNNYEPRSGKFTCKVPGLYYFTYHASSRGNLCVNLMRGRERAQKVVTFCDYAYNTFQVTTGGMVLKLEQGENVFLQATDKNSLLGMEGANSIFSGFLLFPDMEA
T5 sequence (P02747 29-245 limits assumed, chain 3 of 3): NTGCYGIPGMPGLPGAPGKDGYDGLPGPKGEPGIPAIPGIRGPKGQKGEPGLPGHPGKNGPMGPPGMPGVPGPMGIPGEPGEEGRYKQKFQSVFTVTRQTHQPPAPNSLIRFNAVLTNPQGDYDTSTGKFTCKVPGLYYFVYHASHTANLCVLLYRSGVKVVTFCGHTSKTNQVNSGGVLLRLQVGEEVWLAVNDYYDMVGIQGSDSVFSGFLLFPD
T8 sequence (P08637 17-208 limits assumed): as the sequence (P08637 17-208 limits assumed) above

Binder	Kd [1]	IC50 (read off the curve) [2]	koff [3]	kon [3]	Kd [4]	EC50 (read off the curve) [5]	IC50 (read off the curve) [6]	IC50 [7]	IC50 relative to IgG1 [7]	Kd [8]	IC50 (read off the curve) [9]	koff [10]	kon [10]	Kd [11]	IC50 (read off the curve) [12]	IC50 (read off the curve) [13]	Kd [14]	Kd [15]	binding result [16]	binding result [17]
B1	243 nM	~200 nM	0.0214 s⁻¹	31800 M⁻¹ s⁻¹	30 nM	~0.1 nM	~200 nM	2.27 nM	1 fold	674 nM	~40 nM	0.00729 s⁻¹	64900 M⁻¹ s⁻¹	112 nM	~40 nM	~200 nM	470 nM	956 nM	–	–
B2	–	–	–	–	–	~0.08 nM	–	> 1000 nM	> 400 fold	–	–	–	–	–	–	–	500 nM	–	no binding (tested: 200 nM C1q)	no binding (tested: 2000 nM)
